B1: CD40L-385 (antibody, V domains shown)
VH: EVQLLESGGGLVQPGGSLRLSCAASGFTFSNYAMSWVRQAPGKGLEWVSAITGSGSTTYYADSVKGRFTISRDNSKNTLYLQMNSLRAEDTAVYYCARAHDYDSMLMDYWGQGTLVTVSS
VL: DIQMTQSPSSLSASVGDRVTITCRASQSIKSYLNWYQQKPGKAPKLLIYSASSLLSGVPSRFSGSGSGTDFTLTISSLQPEDFATYYCQQSYTLPRTFGGGTKVEIK
B2: CD40L-392 (antibody, V domains shown)
VH: EVQLLESGGGLVQPGGSLRLSCAASGFTFSSFDMTWVRQAPGKGLEWVSGISGSGGTTFYADSVKGRFTISRDNSKNTLYLQMNSLRAEDTAVYYCVRDVSDIYGYLDDAFDIWGQGTLVTVSS
VL: B1 VL with S28D, K30R, S31N, S50A, A51T, L55Q, S56T, T93G, L94A, R96L
B3: CD40L-401 (antibody, V domains shown)
VH: EVQLLESGGGLVQPGGSLRLSCAASGFTFGNYAMTWVRQAPGKGLEWVSAISGLGGSTYYADSVKGRFTISRDNSKNTLYLQMNSLRAEDTAVYYCTSSDPTYYYDSNGKSSLGMDVWGQGTLVTVSS
VL: B1 VL with A25G, K30S, Y32F, S50A, S53K, L55H, Q90H, T93S, L94T, R96L
B4: CD40L-410 (antibody, V domains shown)
VH: EVQLLESGGGLVQPGGSLRLSCAASGFTFRTYAMGWVRQAPGKGLEWVSAISGSGGIAYYADSVKGRFTISRDNSKNTLYLQMNSLRAEDTAVYYCARHYYYDSSDAFDIWGQGTLVTISS
VL: B1 VL with S9F, S28N, K30L, S31T, S50G, S53T, L55R, T93R, R96L
B5: CD40L-417 (antibody, V domains shown)
VH: EVQLLESGGGLVQPGGSLRLSCAASGFTFSKYAMNWVRQAPGKGLEWVSAISGSGESTYYADSVKGRFTISRDNSKNTLYLQMNSLRAEDTAVYYCARHGGYYYYYMDVWGQGTLVTVSS
VL: B1 VL with A25G, K30S, Y32F, S50A, S53K, L55H, Q90H, T93S, L94T, R96L
B6: CD40L-421 (antibody, V domains shown)
VH: EVQLLESGGGLVQPGGSLRLSCAASGFTFSKYAMNWVRQAPGKGLEWVSAISGSGESTYYADSVKGRFTISRDNSKNTLYLQMNSLRAEDTAVYYCATDYGDYDRLNFDLWGQGTLVTVSS
VL: B1 VL with A25G, K30S, Y32F, S50A, S53K, L55H, Q90H, T93S, L94T, R96L
B7: CD40L-141 (VHH)
VHH: EVQLVESGGGLVQPGGSLRLSCAASGGTLDDYAMGWFRQAPGKEREFLASVSWGFGSTYYADSVKGRFTISADNSKNTAYLQMNSLKPEDTAVYYCAKDGGSYGMDVWGQGTLVTVSS
B8: CD40L-154 (VHH)
VHH: EVQLVESGGGLVQPGGSLRLSCAASGRTSRSYEMGWFRQAPGKEREFVAAIDWDGSRTQYADSVKGRFTISADNSKNTAYLQMNSLKPEDTAVYYCAVPRETGWDGDWGQGTLVTVSS
B9: CD40L-182 (antibody, V domains shown)
VH: EVQLLESGGGLVQPGGSLRLSCAASGGYNFRDYMHWVRQAPGKGLEWVSYISSSGSSTYYADSVKGRFTISRDNSKNTLYLQMNSLRAEDTAVYYCAKNLGQGFDYWGQGTLVTVSS
VL: DIQMTQSPSSLSASVGDRVTITCSGDNLGDKYVHWYQQKPGKAPKLLIYGKKNRPSGVPSRFSGSGSGTDFTLTISSLQPEDFATYYCQAWDRTVVFGQGTKVEIK

Positions count from the first letter of the chain named.

Sequence of CD40L (P29965 whole entry): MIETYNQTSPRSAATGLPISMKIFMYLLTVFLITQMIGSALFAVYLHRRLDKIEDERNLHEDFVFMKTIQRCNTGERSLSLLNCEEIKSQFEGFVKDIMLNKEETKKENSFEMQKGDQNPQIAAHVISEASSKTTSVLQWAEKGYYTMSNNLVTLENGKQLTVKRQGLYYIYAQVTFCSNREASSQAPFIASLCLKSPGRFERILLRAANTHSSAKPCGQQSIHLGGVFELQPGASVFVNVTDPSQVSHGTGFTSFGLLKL

One assay has as its target CD40L (UniProt P29965). Kind of assay: flow cytometry, 100 nM IgG, CD40L over-expressing Expi293 cells over parent Expi293 cells. For orientation: Flow cytometry measures light scatter and fluorescence of single cells or particles in a stream.
As to B1, the 100 nM FACS (MFI Ratio) worked out at 1.9 MFI ratio.

With B2, the 100 nM FACS (MFI Ratio) is 2 MFI ratio. Still for that read-out and setting: next, B3: 1.8 MFI ratio; B4: 1.8 MFI ratio. As to B5, the 100 nM FACS (MFI Ratio) stood at 1.7 MFI ratio. As for B6, the 100 nM FACS (MFI Ratio) turned out to be 1.9 MFI ratio.

The target of the next assay is CD40L over-expressed on Expi293 cells (UniProt P29965). Description: flow cytometry, 100 nM antibody, CD40L-Expi293 vs parent Expi293 cells.
Sequence of CD40L over-expressed on Expi293 cells (P29965 whole entry): as above
B7: the 100 nM FACS (MFI Ratio) stood at 2. Turning to B8, the 100 nM FACS (MFI Ratio) was 1.9.

For B9, the 100 nM FACS (MFI Ratio) came to 1.8.

The values are drawn from patent US20230265179A1.
